# Assay results published in IntAct's records for PubMed 16407977.
# B1: Transient receptor potential cation channel subfamily M member 7 (Mus musculus), Q923J1 (parent)
# chain: MSQKSWIESTLTKRECVYIIPSSKDPHRCLPGCQICQQLVRCFCGRLVKQHACFTASLAMKYSDVKLGEHFNQAIEEWSVEKHTEQSPTDAYGVINFQGGSHSYRAKYVRLSYDTKPEIILQLLLKEWQMELPKLVISVHGGMQKFELHPRIKQLLGKGLIKAAVTTGAWILTGGVNTGVAKHVGDALKEHASRSSRKICTIGIAPWGVIENRNDLVGRDVVAPYQTLLNPLSKLNVLNNLHSHFILVDDGTVGKYGAEVRLRRELEKTINQQRIHARIGQGVPVVALIFEGGPNVILTVLEYLQESPPVPVVVCEGTGRAADLLAYIHKQTEEGGNLPDAAEPDIISTIKKTFNFGQSEAVHLFQTMMECMKKKELITVFHIGSEDHQDIDVAILTALLKGTNASAFDQLILTLAWDRVDIAKNHVFVYGQQWLVGSLEQAMLDALVMDRVSFVKLLIENGVSMHKFLTIPRLEELYNTKQGPTNPMLFHLIRDVKQGNLPPGYKITLIDIGLVIEYLMGGTYRCTYTRKRFRLIYNSLGGNNRRSGRNTSSSTPQLRKSHETFGNRADKKEKMRHNHFIKTAQPYRPKMDASMEEGKKKRTKDEIVDIDDPETKRFPYPLNELLIWACLMKRQVMARFLWQHGEESMAKALVACKIYRSMAYEAKQSDLVDDTSEELKQYSNDFGQLAVELLEQSFRQDETMAMKLLTYELKNWSNSTCLKLAVSSRLRPFVAHTCTQMLLSDMWMGRLNMRKNSWYKVILSILVPPAILMLEYKTKAEMSHIPQSQDAHQMTMEDSENNFHNITEEIPMEVFKEVKILDSSDGKNEMEIHIKSKKLPITRKFYAFYHAPIVKFWFNTLAYLGFLMLYTFVVLVKMEQLPSVQEWIVIAYIFTYAIEKVREVFMSEAGKISQKIKVWFSDYFNVSDTIAIISFFVGFGLRFGAKWNYINAYDNHVFVAGRLIYCLNIIFWYVRLLDFLAVNQQAGPYVMMIGKMVANMFYIVVIMALVLLSFGVPRKAILYPHEEPSWSLAKDIVFHPYWMIFGEVYAYEIDVCANDSTLPTICGPGTWLTPFLQAVYLFVQYIIMVNLLIAFFNNVYLQVKAISNIVWKYQRYHFIMAYHEKPVLPPPLIILSHIVSLFCCVCKRRKKDKTSDGPKLFLTEEDQKKLHDFEEQCVEMYFDEKDDKFNSGSEERIRVTFERVEQMSIQIKEVGDRVNYIKRSLQSLDSQIGHLQDLSALTVDTLKTLTAQKASEASKVHNEITRELSISKHLAQNLIDDVPVRPLWKKPSAVNTLSSSLPQGDRESNNPFLCNIFMKDEKDPQYNLFGQDLPVIPQRKEFNIPEAGSSCGALFPSAVSPPELRQRRHGVEMLKIFNKNQKLGSSPNSSPHMSSPPTKFSVSTPSQPSCKSHLESTTKDQEPIFYKAAEGDNIEFGAFVGHRDSMDLQRFKETSNKIRELLSNDTPENTLKHVGAAGYSECCKTSTSLHSVQAESCSRRASTEDSPEVDSKAALLPDWLRDRPSNREMPSEGGTLNGLASPFKPVLDTNYYYSAVERNNLMRLSQSIPFVPVPPRGEPVTVYRLEESSPSILNNSMSSWSQLGLCAKIEFLSKEEMGGGLRRAVKVLCTWSEHDILKSGHLYIIKSFLPEVINTWSSIYKEDTVLHLCLREIQQQRAAQKLTFAFNQMKPKSIPYSPRFLEVFLLYCHSAGQWFAVEECMTGEFRKYNNNNGDEIIPTNTLEEIMLAFSHWTYEYTRGELLVLDLQGVGENLTDPSVIKAEEKRSCDMVFGPANLGEDAIKNFRAKHHCNSCCRKLKLPDLKRNDYTPDKIIFPQDESSDLNLQSGNSTKESEATNSVRLML
# Variants of: B1
# Conditions: with myh9_mouse Myh9, Q8VDD5
# Chain of myh9_mouse Myh9, Q8VDD5 (Q8VDD5 whole entry): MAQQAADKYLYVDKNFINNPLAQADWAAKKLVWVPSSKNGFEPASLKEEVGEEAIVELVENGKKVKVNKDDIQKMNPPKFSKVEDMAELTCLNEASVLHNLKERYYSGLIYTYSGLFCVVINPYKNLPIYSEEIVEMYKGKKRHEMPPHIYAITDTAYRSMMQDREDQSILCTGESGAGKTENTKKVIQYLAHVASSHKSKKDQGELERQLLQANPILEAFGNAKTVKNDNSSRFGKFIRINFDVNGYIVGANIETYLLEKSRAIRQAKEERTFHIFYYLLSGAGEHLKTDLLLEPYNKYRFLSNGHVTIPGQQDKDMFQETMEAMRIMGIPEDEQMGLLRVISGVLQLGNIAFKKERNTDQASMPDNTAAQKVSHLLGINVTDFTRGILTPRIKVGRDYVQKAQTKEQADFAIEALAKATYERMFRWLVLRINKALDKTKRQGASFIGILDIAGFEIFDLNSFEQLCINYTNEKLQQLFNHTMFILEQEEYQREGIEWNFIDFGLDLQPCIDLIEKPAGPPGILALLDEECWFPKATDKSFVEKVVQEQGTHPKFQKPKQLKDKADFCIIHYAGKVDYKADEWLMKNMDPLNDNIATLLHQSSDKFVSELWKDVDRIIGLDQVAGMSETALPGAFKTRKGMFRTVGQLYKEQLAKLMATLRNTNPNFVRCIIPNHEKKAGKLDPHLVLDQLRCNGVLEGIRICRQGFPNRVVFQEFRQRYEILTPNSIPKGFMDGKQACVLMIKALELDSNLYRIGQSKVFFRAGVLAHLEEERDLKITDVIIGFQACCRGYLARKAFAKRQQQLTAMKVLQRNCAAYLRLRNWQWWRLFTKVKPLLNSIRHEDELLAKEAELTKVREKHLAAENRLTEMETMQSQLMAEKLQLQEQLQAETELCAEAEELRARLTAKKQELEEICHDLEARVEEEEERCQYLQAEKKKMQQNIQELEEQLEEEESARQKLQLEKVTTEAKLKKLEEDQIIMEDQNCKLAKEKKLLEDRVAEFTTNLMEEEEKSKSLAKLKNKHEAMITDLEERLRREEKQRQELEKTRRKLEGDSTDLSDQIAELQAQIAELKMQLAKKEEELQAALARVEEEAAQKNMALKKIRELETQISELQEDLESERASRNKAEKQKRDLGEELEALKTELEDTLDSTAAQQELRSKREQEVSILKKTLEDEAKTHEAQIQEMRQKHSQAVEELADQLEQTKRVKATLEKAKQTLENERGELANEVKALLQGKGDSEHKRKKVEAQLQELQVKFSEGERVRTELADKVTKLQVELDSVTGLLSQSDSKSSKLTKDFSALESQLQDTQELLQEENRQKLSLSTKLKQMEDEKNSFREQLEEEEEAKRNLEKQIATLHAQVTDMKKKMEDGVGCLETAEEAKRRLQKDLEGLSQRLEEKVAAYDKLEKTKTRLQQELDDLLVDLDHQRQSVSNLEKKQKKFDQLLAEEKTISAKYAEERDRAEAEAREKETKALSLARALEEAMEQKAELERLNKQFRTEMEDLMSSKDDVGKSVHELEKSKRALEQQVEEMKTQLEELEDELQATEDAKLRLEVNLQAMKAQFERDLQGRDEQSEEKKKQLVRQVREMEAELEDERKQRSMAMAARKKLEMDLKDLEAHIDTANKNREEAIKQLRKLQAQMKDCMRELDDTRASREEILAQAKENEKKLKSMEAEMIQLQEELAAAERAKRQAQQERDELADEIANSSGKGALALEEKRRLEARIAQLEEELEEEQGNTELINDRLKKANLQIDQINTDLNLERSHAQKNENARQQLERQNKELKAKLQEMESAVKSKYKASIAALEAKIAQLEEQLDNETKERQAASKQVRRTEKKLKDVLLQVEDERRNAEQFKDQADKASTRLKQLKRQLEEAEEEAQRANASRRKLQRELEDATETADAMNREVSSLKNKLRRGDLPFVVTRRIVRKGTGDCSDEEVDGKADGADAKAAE
row,effect of a mutation on the interaction,Variant
1,decreasing interaction,D1775A
